In publication PMC10441612:

Biological target: Noe1-His (Noelin 1 with C-terminal hexa-histidine tag), O88998
Assay: AUC
Settings: remark: other sources report otherwise

B1: Noe1-His (Noelin 1 with C-terminal hexa-histidine tag), O88998 17-485 (natural protein)
chain: MITNWMSQTLPSLVGLNTTRLSAASGGTLDRSTGVLPTNPEESWQVYSSAQDSEGRCICTVVAPQQTMCSRDARTKQLRQLLEKVQNMSQSIEVLDRRTQRDLQYVEKMENQMKGLETKFKQVEESHKQHLARQFKAIKAKMDELRPLIPVLEEYKADAKLVLQFKEEVQNLTSVLNELQEEIGAYDYDELQSRVSNLEERLRACMQKLACGKLTGISDPVTVKTSGSRFGSWMTDPLAPEGDNRVWYMDGYHNNRFVREYKSMVDFMNTDNFTSHRLPHPWSGTGQVVYNGSIYFNKFQSHIIIRFDLKTEAILKTRSLDYAGYNNMYHYAWGGHSDIDLMVDENGLWAVYATNQNAGNIVISKLDPVSLQILQTWNTSYPKRSAGEAFIICGTLYVTNGYSGGTKVHYAYQTNASTYEYIDIPFQNKYSHISMLDYNPKDRALYAWNNGHQTLYNVTLFHVIRSDEL
modifications: here or on the partner: glycosylated; glycosylated
  stoichiometry N: 4
